According to patent US11224246B2, “Mineral fortification process and its uses” (SOCIETE DES PRODUITS NESTLE S.A., priority 2012, dated 2022):

Legend:
Assay type in all cases: physicochemical
[1] = Copper sulphate addition to sodium caseinate solution, precipitation; conditions: 2% protein
Procedure: The sodium caseinate solution (2% protein) precipitated upon addition of 1.5 mM copper as copper sulphate. Again using the concept of complex II, we could add 4 mM without noticeable precipitation at pH 6.8.

[2] = Zinc sulphate addition to sodium caseinate solution, precipitation of proteins; conditions: 2% protein solution, pH 6.8
Procedure: We have compared the effect of zinc sulphate addition on the precipitation of proteins in sodium caseinate using our technology.
Upon addition of zinc sulphate to sodium caseinate solution (2% protein), not more than 5 mM of zinc could be added without gross precipitation of proteins at pH 6.8.
However, as exemplified with the concept of complex II, we could add 18 mM of zinc to the sodium caseinate (2% protein solution) without any precipitation of proteins.

[3] = Effect of phosphorus addition on soluble protein, soluble iron, turbidity and appearance of sodium caseinate solution on iron addition; conditions: without the phosphorus, FIGS. 6 and 7
Procedure: FIGS. 3 to 5 illustrate the effect of adding phosphorus to the complex.
FIG. 5 illustrates the advantages of the invention, wherein an increase in turbidity indicates a reduction in stability due to the formation of small particulates/precipitates.
FIGS. 6 and 7 visually illustrate how addition of phosphorus improves the solubility and stability of the complex. Even when the iron is loaded up to 25 mM, the composition remains in solution. Without the phosphorus, the protein and/or iron precipitates even at lower levels of iron (5-10 mM).

sodium caseinate
Copper addition at which the solution precipitated [1]: 1.5 mM | Zinc that could be added without precipitation of proteins [2]: not more than 5 mM | Iron level at which protein and/or iron precipitates [3]: 5 to 10 mM
